In US20150203577A1 (Chugai, published 2015):
Each block holds one binder with its values, some of them ahead of it.

Legend:
[1] = target: T1, mouse FcγRII (mouse, UniProt P08101 30-210); test: SPR Biacore T200, KD ratio
T1 construct: also called mFcγRII; mFcgRII
T1 sequence: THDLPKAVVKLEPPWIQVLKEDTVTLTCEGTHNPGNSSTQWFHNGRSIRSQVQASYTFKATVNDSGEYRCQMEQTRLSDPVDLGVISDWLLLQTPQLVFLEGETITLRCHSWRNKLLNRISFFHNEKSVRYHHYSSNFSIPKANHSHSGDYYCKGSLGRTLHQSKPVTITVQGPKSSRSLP

[2] = target: T2, mouse FcγRIII (mouse, UniProt P08508 31-215); test: SPR Biacore T200, KD ratio
T2 construct: also called mFcγRIII; mFcgRIII
T2 chain: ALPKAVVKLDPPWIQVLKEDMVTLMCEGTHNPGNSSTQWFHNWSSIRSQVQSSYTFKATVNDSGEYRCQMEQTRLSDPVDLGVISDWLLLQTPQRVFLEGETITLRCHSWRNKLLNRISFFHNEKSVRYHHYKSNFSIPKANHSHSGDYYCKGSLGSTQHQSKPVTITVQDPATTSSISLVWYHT

[3] = target: T1, mouse FcγRII; test: SPR Biacore T200, KD ratio; remark: listed apart in the source
[4] = target: T3, mouse FcγRII extracellular domain, C-terminal His tag (mouse, UniProt P08101 30-210); test: SPR (Biacore T200)
T3 construct: Whole entry named; also called mFcγRII; mFcgRII
T3 sequence: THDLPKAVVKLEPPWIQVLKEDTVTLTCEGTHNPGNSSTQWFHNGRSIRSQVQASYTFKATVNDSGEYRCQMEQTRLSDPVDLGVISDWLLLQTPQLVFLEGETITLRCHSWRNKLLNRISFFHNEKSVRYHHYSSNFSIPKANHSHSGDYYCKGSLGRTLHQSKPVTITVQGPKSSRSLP
Description: The antibody H chain variable region used was the variable region H237 (SEQ ID NO: 1) of the H chain VH3-IgG1 of the anti-IL-6 receptor antibody Fv4-IgG1 described in WO2009/125825. The antibody L chain commonly used was the L chain MRAL-k0 (SEQ ID NO: 2) of the anti-IL-6 receptor antibody tocilizumab. […] These variants were expressed and purified by the method of Reference Example 1 and evaluated for their binding to mFcγRII and mFcγRIII by the method of Reference Example 2 using Biacore T200.
(§1) Each altered antibody was analyzed for its interaction with each Fcγ receptor prepared above using Biacore T100 (GE Healthcare Japan Corp.), Biacore T200 (GE Healthcare Japan Corp.), Biacore A100, or Biacore 4000. The running buffer used was HBS-EP+ (GE Healthcare Japan Corp.). The assay temperature was set to 25° C. The sensor chips used were chips prepared by immobilizing Protein L (ACTIGEN or BioVision) onto Series S Sensor Chip CM5 (GE Healthcare Japan Corp.) or Series S Sensor Chip CM4 (GE Healthcare Japan Corp.) by the amine coupling method.

[5] = target: T4, mouse FcγRIII extracellular domain, C-terminal His tag (mouse, UniProt P08508 31-215); test: SPR (Biacore T200); KD of H237-mIgG1/MRAL-k0 / KD of variant
T4 construct: Whole entry named; also called mFcγRIII; mFcgRIII
T4 chain: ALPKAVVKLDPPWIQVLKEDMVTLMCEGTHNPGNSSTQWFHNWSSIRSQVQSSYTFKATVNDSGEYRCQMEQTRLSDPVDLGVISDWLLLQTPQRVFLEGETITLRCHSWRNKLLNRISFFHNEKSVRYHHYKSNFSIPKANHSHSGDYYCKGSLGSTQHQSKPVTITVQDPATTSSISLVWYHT

[6] = target: T5, mouse FcγRIII extracellular domain, C-terminally His-tagged (mouse, UniProt P08508 31-215); test: SPR Biacore T200, antibody captured on Protein L
T5 construct: the whole entry is named; also called mFcγRIII; mFcgRIII
T5 chain: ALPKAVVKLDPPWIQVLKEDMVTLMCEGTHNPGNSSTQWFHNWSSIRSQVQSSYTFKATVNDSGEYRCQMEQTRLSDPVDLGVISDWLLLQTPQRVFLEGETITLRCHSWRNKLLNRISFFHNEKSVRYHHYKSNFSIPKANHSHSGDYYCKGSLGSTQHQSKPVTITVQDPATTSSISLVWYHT
Description: As for alterations, “X000Z” represents the substitution of amino acid X at EU numbering position 000 by amino acid Z. In this context, X and Z represent the one-letter codes of the amino acid residues.
as §1
(§2) In order to calculate the KD value of each altered antibody for FcγR, kinetic analysis was conducted according to the following method: first, the antibody of interest was captured onto any of these chips and allowed to interact with mFcγR diluted with a running buffer. For the obtained sensorgram, the assay results were globally fit into the 1:1 Langmuir binding model using Biacore Evaluation Software to calculate an association rate constant ka (L/mol/s) and a dissociation rate constant kd (1/s). From these values, the dissociation constant KD (mol/L) was calculated.

[7] = target: T6, mouse FcγRII (mouse, UniProt P08101 30-210); test: SPR (Biacore), antibody captured on Protein L, mFcγR as analyte
T6 construct: also called mFcγRII; mFcgRII
T6 sequence: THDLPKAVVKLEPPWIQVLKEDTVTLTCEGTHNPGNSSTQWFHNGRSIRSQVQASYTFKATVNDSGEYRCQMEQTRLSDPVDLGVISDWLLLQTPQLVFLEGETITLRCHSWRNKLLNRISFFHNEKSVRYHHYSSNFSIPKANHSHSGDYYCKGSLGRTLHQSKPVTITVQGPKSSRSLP
Description: (§3) The antibody of interest was captured onto any of these sensor chips and allowed to interact with mFcγR diluted with a running buffer. The amount bound to the antibody was measured and compared among antibodies. Since the amount of mFcγR bound depends on the amount of the captured antibody, a correction value determined by dividing the amount of mFcγR bound by the amount of each captured antibody was used in the comparison. The antibody captured on the sensor chip was washed off through the reaction of 10 mM glycine-HCl (pH 1.5) to regenerate the sensor chip, which was repetitively used.
as §2

[8] = target: T7, mouse FcγRIII (mouse, UniProt P08508 31-215); test: as above
T7 construct: also called mFcγRIII; mFcgRIII
T7 chain: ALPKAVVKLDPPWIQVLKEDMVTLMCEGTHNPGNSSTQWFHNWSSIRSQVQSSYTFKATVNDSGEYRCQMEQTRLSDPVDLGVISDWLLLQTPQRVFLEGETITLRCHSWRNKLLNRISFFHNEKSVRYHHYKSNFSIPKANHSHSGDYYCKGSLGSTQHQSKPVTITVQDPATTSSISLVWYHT
Description: as §3, §2

Relative mFcγRII-binding activity (MB110 = 1) [1]: 3.44 fold
relative mFcγRII-binding activity (mIgG1 = 1) [1]: 42.2 fold
Relative mFcγRIII-binding activity (MB110 = 1) [2]: 0.64 fold
relative mFcγRIII-binding activity (mIgG1 = 1) [2]: 2.6 fold
mFcγRII-binding activity relative to H237-MB302/MRAL-k0 (before the introduction of V231D) [3]: ~0.8 fold
B1: H237-MB338/MRAL-k0 (antibody, mouse IgG1, kappa)
heavy: QVQLQESGPGLVKPSETLSLTCAVSGHSISHDHAWSWVRQPPGEGLEWIGFISYSGITNYNPSLQGRVTISRDNSKNTLYLQMNSLRAEDTAVYYCARSLARTTAMDYWGEGTLVTVSSAKTTPPSVYPLAPGSAAQTNSMVTLGCLVKGYFPEPVTVTWNSGSLSSGVHTFPAVLQSDLYTLSSSVTVPSSTWPSETVTCNVAHPASSTKVDKKIVPRDCGCKPCICEDPEVEDVFIFPPKPKDVLTITLTPKVTCVVVDISKDDPEVQFSWFVDDVEVHTAQTQPREEQFNSTFRSVSELPIMHQDWLNGKEFKCRVNSAAFPAPIEKTISKTKGRPKAPQVYTIPPPKEQMAKDKVSLTCMITDFFPEDITVEWQWNGQPAENYKNTQPIMDTDGSYFVYSKLNVQKSNWEAGNTFTCSVLHEGLHNHHTEKSLSHSPGK
light: not shown
notes: copies: 2 + 2

binding result [4]: no binding
relative mFcγRIII-binding activity (mIgG1 = 1) [5]: 0.03 fold
B2: H237-MB677/MRAL-k0 (antibody)
heavy: QVQLQESGPGLVKPSETLSLTCAVSGHSISHDHAWSWVRQPPGEGLEWIGFISYSGITNYNPSLQGRVTISRDNSKNTLYLQMNSLRAEDTAVYYCARSLARTTAMDYWGEGTLVTVSSAKTTPPSVYPLAPGSAAQTNSMVTLGCLVKGYFPEPVTVTWNSGSLSSGVHTFPAVLQSDLYTLSSSVTVPSSTWPSETVTCNVAHPASSTKVDKKIVPRDCGCKPCICQPNEVEKVFIFPPKPKDVLTITLTPKVTCVVVDISKDDPEVQFSWFVDDVEVHTAQTQPREEQFNSTFRSVSELPIMHQDWLNGKEFKCRVNSAAFPAPIEKTISKTKGRPKAPQVYTIPPPKEQMAKDKVSLTCMITDFFPEDITVEWQWNGQPAENYKNTQPIMDTDGSYFVYSKLNVQKSNWEAGNTFTCSVLHEGLHNHHTEKSLSHSPGK
light: not shown
notes: copies: 2 + 2

Kd [6]: 282 nM
B3: H237-mIgG1/MRAL-k0 (antibody)
heavy: QVQLQESGPGLVKPSETLSLTCAVSGHSISHDHAWSWVRQPPGEGLEWIGFISYSGITNYNPSLQGRVTISRDNSKNTLYLQMNSLRAEDTAVYYCARSLARTTAMDYWGEGTLVTVSSAKTTPPSVYPLAPGSAAQTNSMVTLGCLVKGYFPEPVTVTWNSGSLSSGVHTFPAVLQSDLYTLSSSVTVPSSTWPSETVTCNVAHPASSTKVDKKIVPRDCGCKPCICTVPEVSSVFIFPPKPKDVLTITLTPKVTCVVVDISKDDPEVQFSWFVDDVEVHTAQTQPREEQFNSTFRSVSELPIMHQDWLNGKEFKCRVNSAAFPAPIEKTISKTKGRPKAPQVYTIPPPKEQMAKDKVSLTCMITDFFPEDITVEWQWNGQPAENYKNTQPIMDTDGSYFVYSKLNVQKSNWEAGNTFTCSVLHEGLHNHHTEKSLSHSPGK
light: not shown
notes: Anti-IL-6 receptor antibody with the unaltered mouse IgG1 H chain constant region; copies: 2 + 2

Kd [7]: 1.07 nM
relative mFcγRII-binding activity (mIgG1 = 1) [7]: 196 fold
Kd [8]: 94 nM
relative mFcγRIII-binding activity (mIgG1 = 1) [8]: 3 fold
B4: H237-MB477/MRAL-k0 (antibody, mouse IgG1, kappa)
heavy: QVQLQESGPGLVKPSETLSLTCAVSGHSISHDHAWSWVRQPPGEGLEWIGFISYSGITNYNPSLQGRVTISRDNSKNTLYLQMNSLRAEDTAVYYCARSLARTTAMDYWGEGTLVTVSSAKTTPPSVYPLAPGSAAQTNSMVTLGCLVKGYFPEPVTVTWNSGSLSSGVHTFPAVLQSDLYTLSSSVTVPSSTWPSETVTCNVAHPASSTKVDKKIVPRDCGCKPCICEPNEVEDVFIFPPKPKDVLTITLTPKVTCVVVDIAKDDPEVQFSWFVDDVEVHTAQTQPREEQFNSTFRSVSELPIMHQDWLNGKEFKCRVNSAAFPAPIEKTISKTKGRPKAPQVYTIPPPKEQMAKDKVSLTCMITDFFPEDITVEWQWNGQPAENYKNTQPIMDTDGSYFVYSKLNVQKSNWEAGNTFTCSVLHEGLHNHHTEKSLSHSPGK
light: not shown
notes: mouse IgG1 CH variant; copies: 2 + 2

binding result [4]: no binding
relative mFcγRIII-binding activity (mIgG1 = 1) [5]: 0.01 fold
B5: H237-MB675/MRAL-k0 (antibody)
heavy: QVQLQESGPGLVKPSETLSLTCAVSGHSISHDHAWSWVRQPPGEGLEWIGFISYSGITNYNPSLQGRVTISRDNSKNTLYLQMNSLRAEDTAVYYCARSLARTTAMDYWGEGTLVTVSSAKTTPPSVYPLAPGSAAQTNSMVTLGCLVKGYFPEPVTVTWNSGSLSSGVHTFPAVLQSDLYTLSSSVTVPSSTWPSETVTCNVAHPASSTKVDKKIVPRDCGCKPCICIPAEVEKVFIFPPKPKDVLTITLTPKVTCVVVDISKDDPEVQFSWFVDDVEVHTAQTQPREEQFNSTFRSVSELPIMHQDWLNGKEFKCRVNSAAFPAPIEKTISKTKGRPKAPQVYTIPPPKEQMAKDKVSLTCMITDFFPEDITVEWQWNGQPAENYKNTQPIMDTDGSYFVYSKLNVQKSNWEAGNTFTCSVLHEGLHNHHTEKSLSHSPGK
light: not shown
notes: copies: 2 + 2

relative mFcγRII-binding activity (H237-mIgG1/MRAL-k0 = 1) [3]: > 500 fold
B6: H237-MB390/MRAL-k0 (antibody, mouse IgG1, kappa)
heavy: QVQLQESGPGLVKPSETLSLTCAVSGHSISHDHAWSWVRQPPGEGLEWIGFISYSGITNYNPSLQGRVTISRDNSKNTLYLQMNSLRAEDTAVYYCARSLARTTAMDYWGEGTLVTVSSAKTTPPSVYPLAPGSAAQTNSMVTLGCLVKGYFPEPVTVTWNSGSLSSGVHTFPAVLQSDLYTLSSSVTVPSSTWPSETVTCNVAHPASSTKVDKKIVPRDCGCKPCICEPNEVEDVFIFPPKPKDVLTITLTPKVTCVVVDISKDDPEVQFSWFVDDVEVHTAQTQPREEQFNSTFRSVSELPIMHQDWLNGKEFKCRVNSAAFPAPIEKTISKTKGRPKAPQVYTIPPPKEQMAKDKVSLTCMITDFFPEDITVEWQWNGQPAENYKNTQPIMDTDGSYFVYSKLNVQKSNWEAGNTFTCSVLHEGLHNHHTEKSLSHSPGK
light: not shown
notes: mIgG1 with T230E/V231P/P232N/S238E/S239D; also called template T8; copies: 2 + 2

Kd [7]: 0.338 nM
relative mFcγRII-binding activity (mIgG1 = 1) [7]: 622 fold
Kd [8]: 25.8 nM
relative mFcγRIII-binding activity (mIgG1 = 1) [8]: 10.9 fold
B7: H237-MB492/MRAL-k0 (antibody, mouse IgG1, kappa)
heavy: QVQLQESGPGLVKPSETLSLTCAVSGHSISHDHAWSWVRQPPGEGLEWIGFISYSGITNYNPSLQGRVTISRDNSKNTLYLQMNSLRAEDTAVYYCARSLARTTAMDYWGEGTLVTVSSAKTTPPSVYPLAPGSAAQTNSMVTLGCLVKGYFPEPVTVTWNSGSLSSGVHTFPAVLQSDLYTLSSSVTVPSSTWPSETVTCNVAHPASSTKVDKKIVPRDCGCKPCICEPNEVEDVFIFPPKPKDVLTITLTPKVTCVVVDISKDDPEVQFSWFVDDVEVHTAQTQPREEQFNSTFRSVSELPIMHQDWLNGKEFKCRVDSAAFPAPIEKTISKTKGRPKAPQVYTIPPPKEQMAKDKVSLTCMITDFFPEDITVEWQWNGQPAENYKNTQPIMDTDGSYFVYSKLNVQKSNWEAGNTFTCSVLHEGLHNHHTEKSLSHSPGK
light: not shown
notes: as for B4
